# In article PMC6166713:
# Tests used:
# Assay in all cases: BLI; Octet Red; GST-WASP variants loaded on anti-GST sensors (10 μg/ml), dipped into a dilution range of Cdc42·GMPPNP; 50 mM Tris-HCl pH 7.5, 150 mM NaCl, 1 mM MgCl2, 0.02% Tween 20, 0.1% BSA, 0.05% sodium azide, 25 °C; GST-alone sensors subtracted
# [1] = molecular target: GST-WASP(201–321) K231A/K232A (UniProt P42768)
# GST-WASP(201–321) K231A = GST-WASP(201–321) K231A (UniProt P42768)
# GST-WASP(201–321) K230A = GST-WASP(201–321) K230A (UniProt P42768)
# GST-WASP(201–321) R227A = GST-WASP(201–321) R227A (UniProt P42768)
# [2] = molecular target: GST-WASP(201–321) K230A/K232A (UniProt P42768)
# [3] = molecular target: GST-WASP(201–321) K230A/K231A (UniProt P42768)
# [4] = molecular target: GST-WASP(201–321) K225A/K226A (UniProt P42768)
# GST-WASP(201–321) K232A = GST-WASP(201–321) K232A (UniProt P42768)
# [5] = molecular target: GST-WASP(201–321) K226A/R227A (UniProt P42768)
# [6] = molecular target: GST-WASP(201–321) K230A/K231A/K232A (UniProt P42768)
# [7] = molecular target: GST-WASP(201–321) wild type (UniProt P42768)
# GST-WASP(201–321) K225A = GST-WASP(201–321) K225A (UniProt P42768)
substance,measurement,setting,value
Cdc42 Δ7 Q61L (from UniProt P60953 1-191) (natural protein),Kd,[1],178 nM
same,koff,[1],0.0639 s⁻¹
same,kon,[1],368000 M⁻¹ s⁻¹
same,Kd,GST-WASP(201–321) K231A,89.6 nM
same,koff,GST-WASP(201–321) K231A,0.0438 s⁻¹
same,kon,GST-WASP(201–321) K231A,509000 M⁻¹ s⁻¹
same,Kd,GST-WASP(201–321) K230A,106 nM
same,koff,GST-WASP(201–321) K230A,0.0498 s⁻¹
same,kon,GST-WASP(201–321) K230A,477000 M⁻¹ s⁻¹
same,Kd,GST-WASP(201–321) R227A,49 nM
same,koff,GST-WASP(201–321) R227A,0.0281 s⁻¹
same,kon,GST-WASP(201–321) R227A,630000 M⁻¹ s⁻¹
same,Kd,[2],142 nM
same,koff,[2],0.067 s⁻¹
same,kon,[2],484000 M⁻¹ s⁻¹
same,Kd,[3],162 nM
same,koff,[3],0.0684 s⁻¹
same,kon,[3],422000 M⁻¹ s⁻¹
same,Kd,[4],59.6 nM
same,koff,[4],0.0295 s⁻¹
same,kon,[4],490000 M⁻¹ s⁻¹
same,Kd,GST-WASP(201–321) K232A,134 nM
same,koff,GST-WASP(201–321) K232A,0.0546 s⁻¹
same,kon,GST-WASP(201–321) K232A,407000 M⁻¹ s⁻¹
same,Kd,[5],74.8 nM
same,koff,[5],0.0372 s⁻¹
same,kon,[5],497000 M⁻¹ s⁻¹
same,Kd,[6],307 nM
same,koff,[6],0.0914 s⁻¹
same,kon,[6],300000 M⁻¹ s⁻¹
same,Kd,[7],63.7 nM
same,koff,[7],0.0417 s⁻¹
same,kon,[7],691000 M⁻¹ s⁻¹
same,Kd,GST-WASP(201–321) K225A,83.5 nM
same,koff,GST-WASP(201–321) K225A,0.0468 s⁻¹
same,kon,GST-WASP(201–321) K225A,671000 M⁻¹ s⁻¹
